Target: Aβ(M1-42) (UniProt P05067)
Assay: fibrils trapped on a 0.2 μm filter, tryptic digest and MALDI-TOF MS; 1:1 mixture of ^15N-Aβ42 and ^14N-Aβ40 monomers, 3 μM total, 5 μM ThT, 37 °C; samples taken at the first and second ThT plateau, fibrils washed with Milli-Q water

Aβ(M1-42), sequence (P05067 671-713): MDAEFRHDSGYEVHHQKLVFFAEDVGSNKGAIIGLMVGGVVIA

## Aβ(M1-40) (from UniProt P05067 672-711) (peptide)
  percent of Aβ40 contained in the fibrils at the first plateau: < 13%

— publication PMC5707514
